# Where a chain is given by its changes, count along the chain named. Names may count otherwise. “Also recorded” adds a separate entry of the source.
# B1: E214S/S237C: serine for glutamate at position 214 and cysteine for serine at position 237 of SEQ ID No. 2 (protein)
# chain: MSVLISGASGYIAKHIVRVLLEQNYKVIGTVRSQDKADKLLKQYNNPNLSYEIVPEIANLDAFDDIFKKHGKEIKYVIHAASPVNFGAKDLEKDLVIPAINGTKNMFEAIKKYAPDTVERVVMTASYASIMTPHRQNDPTLTLDEETWNPVTEENAYENVFTAYCASKTFAEKEAWKFVKENSDAVKFKLTTIHPSFVFGPQNFDEDVTKKLNSTCEIINGLLHAPFDTKVEKTHFCQFIDVRDVAKTHVLGFQKDELINQRLLLCNGAFSQQDIVNVFNEDFPELKGQFPPEDKDTDLNKGVTGCKIDNEKTKKLLAFEFTPFHKTIHDTVYQILHKEGRV
# modifications: Protein translated from synthetic DNA
# B2: E214N/S237C: asparagine for glutamate at position 214 and cysteine for serine at position 237 of SEQ ID No. 2 (protein)
# chain: B1 chain with S214N
# modifications: Protein translated from synthetic DNA
# B3: E214R/S237C: arginine for glutamate at position 214 and cysteine for serine at position 237 of SEQ ID No. 2 (protein)
# chain: B1 chain with S214R
# modifications: Protein translated from synthetic DNA
# B4: E214V/S237A: valine for glutamate at position 214 and alanine for serine at position 237 of SEQ ID No. 2 (protein)
# chain: B1 chain with S214V, C237A
# modifications: Protein translated from synthetic DNA
# What was measured:
# Assay type in all cases: biochemical
# [1] = Substrate specificity, specific activity
# Method: (§1) Adopting a total reaction system of 200 μL, including: 1.0 mM NADPH, 1.0 mM substrate CPMK and sodium phosphate buffer (PBS, 100 mM, pH 7.0), fully and evenly mixing, maintaining at 30° C. for 2 min, adding an appropriate amount of enzyme solution, and detecting the change in light absorption at 340 nm.
# (§2) The enzyme activity was calculated by the following formula: Enzyme activity (U)=EW×V×10^3/(6220×I);
# (§3) in the formula, EW is the change in absorbance at 340 nm in 1 min; V is the volume of a reaction solution in mL; 6220 is the molar extinction coefficient of NADPH in L/mol·cm); and 1 is the optical path distance in cm. One activity unit (U) corresponds to the amount of enzyme required to catalyze the oxidation of 1 μmol NADPH per minute under the above conditions.
# (§4) The reduction on prochiral carbonyl compounds by the alcohol dehydrogenase mutants obtained in Example 3 was studied. The pro-chiral carbonyl compounds include (4-chlorophenyl)-(pyridin-2-yl)-methanone (CPMK), phenyl-(pyridin-2-yl)-methanone, (4-chlorophenyl)-(phenyl)-methanone, (4-bromophenyl)(phenyl)methanone, (4-fluorophenyl)(phenyl)methanone, (4-methoxyphenyl)-(phenyl)-methanone, (4-nitrophenyl)(phenyl)methanone, 1-(pyridin-2-yl)ethanone, acetophenone, 4′-Chloroacetophenone, 4-chlorophenacyl chloride, ethyl 2-oxo-4-phenylbutanoate (OPBE), ethyl 4-chloro-3-oxobutanoate, and methyl 2-oxo-2-phenylacetate.
# [2] = Asymmetric reduction in 20 mL biocatalytic system, conversion
# Method: (§5) In an embodiment of the present disclosure, a chromatographic analysis method is as follows: 100 μL of reactant liquid is taken, 500 μL of ethyl acetate is added, shaking is performed for 1-2 min, centrifugation is performed at 12,000 rpm for 2-5 min, supernatant liquid is taken into a centrifuge tube, after an organic phase naturally volatilizes completely, 500 μL of chromatographically pure ethanol is added, and chiral liquid chromatography and gas chromatography are performed to analyze the transformation rate and the ee value.
# The pure (R)-CPMA were recrystallized from ethyl acetate at 4° C. and gave 99.9% optical purity. […] Besides, the conversion cannot reach 100% with 24 h in the asymmetric reduction of (4-bromophenyl)-(phenyl)-methanone and p-nitrobenzophenone due to the low enzyme activity.
# [3] = Stereoselectivity on different substrates; conditions: for Stereoselectivity (ee): configuration in brackets
# Method: as §5
# (§6) Method for determining optical purity ee:
# (§7) As: molar concentration of (S)-CPMA obtained by liquid chromatography; and AR: molar concentration of (R)-CPMA obtained by liquid chromatography.
# as §4
# All the products above were recrystallized from ethyl acetate and gave more than 99.9% optical purity.
# [4] = Stereoselectivity on different substrates; conditions: configuration in brackets
# Method: as §5, §6, §7, §4
# [5] = Stereoselectivity (ee) of CPMK reduction, chiral liquid chromatography; conditions: for e.e.: product configuration in brackets
# Method: as §5, §6, §7
# [6] = Kinetic analysis of alcohol dehydrogenase and mutants (NADPH oxidation, 340 nm, double reciprocal curve); conditions: substrate CPMK
# Method: as §1, §2, §3
# A column used for purification was a nickel affinity column HisTrap FF crude, and purification was achieved through affinity chromatography using a histidine tag on recombinant protein. The nickel column was equilibrated with a solution A first, a crude enzyme solution was loaded, a penetrating peak was further eluted off using the solution A, and after equilibrium, a solution B (20 mM sodium phosphate, 500 mM NaCl, and 1000 mM imidazole, pH 7.4) was used for gradient elution to elute off the recombinant protein bound to the nickel column, so as to obtain the recombinant alcohol dehydrogenase mutant. The purified protein was subjected to activity measurement (CPMK as substrate, and NADPH as coenzyme) and SDS-PAGE analysis. […] The purified alcohol dehydrogenase protein was then replaced into a Tris-HCl (100 mM, pH 7.0) buffer using a Hi Trap Desalting column (GE Healthcare).
# The activity of KpADH at different substrate concentrations and coenzyme concentrations was determined, and a double reciprocal curve was made based on the reciprocal of activity and substrate concentration to calculate kinetic parameters.
# [7] = substrate [drawing 6], 4-chlorophenacyl chloride
# [8] = substrate [drawing 9], ethyl 4-chloro-3-oxobutanoate
# [9] = substrate [drawing 10], acetophenone
# [10] = substrate [drawing 11], 4-chloroacetophenone
# [11] = substrate [drawing 12], 4-chlorobenzoyl chloride
# [12] = substrate [drawing 16], (4-bromophenyl)-(phenyl)-methanone
# [13] = substrate [drawing 17], p-nitrobenzophenone
# [14] = substrate [drawing 14], likely CPMK (values partly match Table 4)
molecule,measurement,setting,value
B1,specific activity,[1]; substrate [drawing 1],0.19 U/mg
same,specific activity,[1]; substrate [drawing 2],0.09 U/mg
same,specific activity,[1]; substrate [drawing 3],0.25 U/mg
same,specific activity,[1]; substrate [drawing 4],5.69 U/mg
same,specific activity,[1]; substrate [drawing 5],2.55 U/mg
same,specific activity,[1]; [7],5.96 U/mg
same,specific activity,[1]; substrate [drawing 7],15.58 U/mg
same,specific activity,[1]; substrate [drawing 8],30.69 U/mg
same,specific activity,[1]; [8],1.59 U/mg
same,Conversion rate,"[2]; 4-chlorobenzoyl chloride 100 mM, 1 h",66%
same,Conversion rate,"[2]; 4-chlorobenzoyl chloride 100 mM, 2 h",79%
same,Conversion rate,"[2]; 4-chlorobenzoyl chloride 100 mM, 3 h",90%
same,Conversion rate,"[2]; 4-chlorobenzoyl chloride 100 mM, 4 h",98%
same,Conversion rate,"[2]; 4-chlorobenzoyl chloride 100 mM, 6 h",99.2%
same,Conversion rate,"[2]; 4-chlorobenzoyl chloride 100 mM, 8 h",99.8%
same,Conversion rate,"[2]; 4-chlorobenzoyl chloride 100 mM, 12 h",>99.9%
same,Conversion rate,"[2]; 4-chlorobenzoyl chloride 100 mM, 24 h",>99.9%
same,Conversion rate,"[2]; 4-chlorobenzoyl chloride 200 mM, 1 h",55%
same,Conversion rate,"[2]; 4-chlorobenzoyl chloride 200 mM, 2 h",69%
same,Conversion rate,"[2]; 4-chlorobenzoyl chloride 200 mM, 3 h",76%
same,Conversion rate,"[2]; 4-chlorobenzoyl chloride 200 mM, 4 h",85.9%
same,Conversion rate,"[2]; 4-chlorobenzoyl chloride 200 mM, 6 h",96.4%
same,Conversion rate,"[2]; 4-chlorobenzoyl chloride 200 mM, 8 h",99.1%
same,Conversion rate,"[2]; 4-chlorobenzoyl chloride 200 mM, 12 h",99.8%
same,Conversion rate,"[2]; 4-chlorobenzoyl chloride 200 mM, 24 h",>99.9%
same,Conversion rate,"[2]; 4-chlorobenzoyl chloride 500 mM, 1 h",35.6%
same,Conversion rate,"[2]; 4-chlorobenzoyl chloride 500 mM, 2 h",49.6%
same,Conversion rate,"[2]; 4-chlorobenzoyl chloride 500 mM, 3 h",66.4%
same,Conversion rate,"[2]; 4-chlorobenzoyl chloride 500 mM, 4 h",79.3%
same,Conversion rate,"[2]; 4-chlorobenzoyl chloride 500 mM, 6 h",89.0%
same,Conversion rate,"[2]; 4-chlorobenzoyl chloride 500 mM, 8 h",95.6%
same,Conversion rate,"[2]; 4-chlorobenzoyl chloride 500 mM, 12 h",96.9%
same,Conversion rate,"[2]; 4-chlorobenzoyl chloride 500 mM, 24 h",98.9%
same,ee value,[3]; substrate 4-chlorobenzoyl chloride,99.6%
same,Stereoselectivity (ee),[3]; [9],98.9 (R)
same,Stereoselectivity (ee),[3]; [10],95.6 (R)
same,Stereoselectivity (ee),[3]; [11],99.6 (R)
same,Stereoselectivity (ee),[3]; [12],90.6 (R)
same,Stereoselectivity (ee),[3]; [13],91.9 (R)
same,Stereoselectivity (ee),[4]; substrate [drawing 13],52.6 (R)
same,Stereoselectivity (ee),[4]; [14],52.0 (S)
same,Stereoselectivity (ee),[4]; substrate [drawing 15],88.1 (R)
same,Stereoselectivity (ee),[4]; substrate [drawing 18],92.3 (R)
same,configuration of product / stereoselectivity in words,[5],inversion from the R configuration to the S configuration; also recorded: (S)-CPMA
same,e.e.,[5],52.0 (S)
same,Kcat,[6],8.33 ± 0.17 s⁻¹
same,Km,[6],400 ± 20 µM
same,Vmax,[6],12.5 ± 0.16 µM/min/mg
B2,specific activity,[1]; substrate [drawing 1],0.84 U/mg
same,specific activity,[1]; substrate [drawing 2],0.52 U/mg
same,specific activity,[1]; substrate [drawing 3],0.32 U/mg
same,specific activity,[1]; substrate [drawing 4],7.50 U/mg
same,specific activity,[1]; substrate [drawing 5],7.48 U/mg
same,specific activity,[1]; [7],10.02 U/mg
same,specific activity,[1]; substrate [drawing 7],17.10 U/mg
same,specific activity,[1]; substrate [drawing 8],13.21 U/mg
same,specific activity,[1]; [8],5.80 U/mg
same,Stereoselectivity (ee),[3]; [9],99.0 (R)
same,Stereoselectivity (ee),[3]; [10],97.4 (R)
same,Stereoselectivity (ee),[3]; [11],93.6 (R)
same,Stereoselectivity (ee),[3]; [12],91.9 (R)
same,Stereoselectivity (ee),[3]; [13],90.7 (R)
same,ee,"[3]; substrate p-nitrobenzophenone, (S)",99.1%
same,Stereoselectivity (ee),[4]; substrate [drawing 13],51.5 (R)
same,Stereoselectivity (ee),[4]; [14],57.1 (S)
same,Stereoselectivity (ee),[4]; substrate [drawing 15],57.1 (R)
same,Stereoselectivity (ee),[4]; substrate [drawing 18],99.1 (S)
same,configuration of product / stereoselectivity in words,[5],inversion from the R configuration to the S configuration; also recorded: (S)-CPMA
same,e.e.,[5],43.6 (S)
same,Kcat,[6],5.87 ± 0.13 s⁻¹
same,Km,[6],220 ± 20 µM
same,Vmax,[6],8.80 ± 0.20 µM/min/mg
B3,specific activity,[1]; substrate [drawing 1],0.26 U/mg
same,specific activity,[1]; substrate [drawing 2],0.18 U/mg
same,specific activity,[1]; substrate [drawing 3],0.36 U/mg
same,specific activity,[1]; substrate [drawing 4],4.21 U/mg
same,specific activity,[1]; substrate [drawing 5],1.96 U/mg
same,specific activity,[1]; [7],6.69 U/mg
same,specific activity,[1]; substrate [drawing 7],22.48 U/mg
same,specific activity,[1]; substrate [drawing 8],30.69 U/mg
same,specific activity,[1]; [8],1.88 U/mg
same,Stereoselectivity (ee),[3]; [9],98.3 (R)
same,Stereoselectivity (ee),[3]; [10],97.2 (R)
same,Stereoselectivity (ee),[3]; [11],92.9 (R)
same,Stereoselectivity (ee),[3]; [12],89.9 (R)
same,Stereoselectivity (ee),[3]; [13],88.0 (R)
same,Stereoselectivity (ee),[4]; substrate [drawing 13],50.1 (R)
same,Stereoselectivity (ee),[4]; [14],48.3 (S)
same,Stereoselectivity (ee),[4]; substrate [drawing 15],49.8 (R)
same,Stereoselectivity (ee),[4]; substrate [drawing 18],91.9 (R)
same,configuration of product / stereoselectivity in words,[5],inversion from the R configuration to the S configuration; also recorded: (S)-CPMA
same,e.e.,[5],48.3 (S)
same,Kcat,[6],10.4 ± 0.11 s⁻¹
same,Km,[6],880 ± 20 µM
same,Vmax,[6],15.6 ± 0.16 µM/min/mg
B4,specific activity,[1]; substrate [drawing 1],0.16 U/mg
same,specific activity,[1]; substrate [drawing 2],0.12 U/mg
same,specific activity,[1]; substrate [drawing 3],2.37 U/mg
same,specific activity,[1]; substrate [drawing 4],2.86 U/mg
same,specific activity,[1]; substrate [drawing 5],9.21 U/mg
same,specific activity,[1]; [7],27.07 U/mg
same,specific activity,[1]; substrate [drawing 7],24.47 U/mg
same,specific activity,[1]; substrate [drawing 8],27.64 U/mg
same,specific activity,[1]; [8],8.03 U/mg
same,Stereoselectivity (ee),[3]; [9],17.1 (R)
same,Stereoselectivity (ee),[3]; [10],97.8 (R)
same,Stereoselectivity (ee),[3]; [11],75.2 (R)
same,Stereoselectivity (ee),[3]; [12],88.1 (S)
same,Stereoselectivity (ee),[3]; [13],85.3 (S)
same,Stereoselectivity (ee),[4]; substrate [drawing 13],36.6 (R)
same,Stereoselectivity (ee),[4]; [14],98.7 (R)
same,Stereoselectivity (ee),[4]; substrate [drawing 15],54.2 (S)
same,Stereoselectivity (ee),[4]; substrate [drawing 18],81.8 (S)
same,e.e.,[5],98.5 (R)
same,Kcat,[6],8.46 ± 0.27 s⁻¹
same,Km,[6],320 ± 30 µM
same,Vmax,[6],12.69 ± 0.40 µM/min/mg
